Measured values reported in article PMC10830420, “Structures, functions and adaptations of the human LINE-1 ORF2 protein” (Nature, 2023).

Test system: Nc1ncnc2c1ncn2[C@H]1C[C@H](O)[C@@H](COP(=O)(O)OP(=O)(O)OP(=O)(O)O)O1
Assay: Single nucleotide (dATP) incorporation kinetics, HERV-K RT
Format: biochemical, human
Settings: 20-nt DNA primer, HERV-K RT 12 nM
Method: Extended Data Fig. 5 Comparative enzymology of ORF2p RT with HIV-1 and HERV-K. a, Single nucleotide incorporation kinetic curves and parameters of dATP with 36-nt RNA or DNA template and 20-nt DNA primer with ORF2p core (33 nM), HIV-1 RT (4 nM) and HERV-K RT (12 nM). For each enzyme, Michaelis-Menten parameter kcat/KM is nearly identical on both templates (n = 3 (DNA template) and n = 4 (RNA template) independent samples over 2 independent experiments; data represented as mean ± SD). b, Comparison of HIV-1 RT and ORF2p in extension of very short (5–10 nt) primers, pre-annealed to DNA and RNA templates. ORF2p extends all DNA and RNA primer lengths, with somewhat reduced efficiency at 5 nt and, to a lesser extent, 6 nt. […] ORF2p also makes NTA (+) and template jumping/switching (##) larger products; more visible on longer exposure. […] When all products are quantified, HIV-1 extends 21–37% of primers, and this is roughly halved by the heparin trap; ORF2p extends ~10–18% of primers and is unaffected by the trap. […] Asterisk (*) Cy5-5’-label on primer. n = 1 quantified samples shown representative of two independent experiments. […]

HERV-K RT (Homo sapiens)
Km (other: DNA template 36-nt): 4.3 ± 0.1 nM
Km (other: RNA template 36-nt): 9.5 ± 0.1 nM
